Numbered stars: 1 amine (or outer) side, 2 acyl side, 3 side chain; on linkers, the order of the positions; unused ones are H or OH. Bridge positions count the residues as written; N and C are the ends. Square brackets hold non-standard residues; d marks the D form. Ends that are not written are not given here. * marks the point of attachment. TATA = O=C(CC[*:1])N1CN(C(=O)CC[*:2])CN(C(=O)CC[*:3])C1; Trp(6-Me) = Cc1ccc2c(C[C@H](N)C(=O)O)c[nH]c2c1; Trp(2-Me) = Cc1[nH]c2ccccc2c1C[C@H](N)C(=O)O; Tyr(2-F) = N[C@@H](Cc1ccc(O)cc1F)C(=O)O; Dopa = N[C@@H](Cc1ccc(O)c(O)c1)C(=O)O; Nva(3-Et) = CCC(CC)[C@H](N)C(=O)O; aIle = CC[C@@H](C)[C@H](N)C(=O)O; dCha = N[C@H](CC1CCCCC1)C(=O)O; Cba = N[C@@H](CC1CCC1)C(=O)O; Pen = CC(C)(S)[C@H](N)C(=O)O; dNle = CCCC[C@@H](N)C(=O)O; Pip = O=C(O)[C@@H]1CCCCN1; Nle = CCCC[C@H](N)C(=O)O; Pent4ynoyl = C#CCCC(=O)*; Nva = CCC[C@H](N)C(=O)O; Dap = NC[C@H](N)C(=O)O; Aib = CC(C)(N)C(=O)O; GABA = NCCCC(=O)O
B1: BCY19699 (peptide)
peptide: [GABA]CNLQAPCMLTGKVCA-NH2
modifications: linker 2-8-15 via TATA
notes: scaffold TATA
B2: BCY19683 (peptide)
peptide: Ac-CY[Cba]PDYLC[dCha]DEYC-NH2
modifications: linker 1-8-13 via TATA
SMILES: CC(=O)N[C@H]1CSCCC(=O)N2CN3CN(C2)C(=O)CCSC[C@H](NC(=O)[C@H](CC(C)C)NC(=O)[C@H](Cc2ccc(O)cc2)NC(=O)[C@H](CC(=O)O)NC(=O)[C@@H]2CCCN2C(=O)[C@H](CC2CCC2)NC(=O)[C@H](Cc2ccc(O)cc2)NC1=O)C(=O)N[C@H](CC1CCCCC1)C(=O)N[C@@H](CC(=O)O)C(=O)N[C@@H](CCC(=O)O)C(=O)N[C@@H](Cc1ccc(O)cc1)C(=O)N[C@H](C(N)=O)CSCCC3=O
notes: scaffold TATA
B3: BCY19684 (peptide)
peptide: Ac-CY[Cba]PDYLC[dK](Pent4ynoyl)DEYC-NH2
modifications: linker 1-8-13 via TATA
SMILES: C#CCCC(=O)NCCCC[C@H]1NC(=O)[C@@H]2CSCCC(=O)N3CN(CN(C3)C(=O)CCSC[C@H](NC(C)=O)C(=O)N[C@@H](Cc3ccc(O)cc3)C(=O)N[C@@H](CC3CCC3)C(=O)N3CCC[C@H]3C(=O)N[C@@H](CC(=O)O)C(=O)N[C@@H](Cc3ccc(O)cc3)C(=O)N[C@@H](CC(C)C)C(=O)N2)C(=O)CCSC[C@@H](C(N)=O)NC(=O)[C@H](Cc2ccc(O)cc2)NC(=O)[C@H](CCC(=O)O)NC(=O)[C@H](CC(=O)O)NC1=O
notes: scaffold TATA
B4: BCY19689 (peptide)
peptide: Ac-[Pen]Y[Cba]PDYLC[dA]DEYC-NH2
modifications: linker 1-8-13 via TATA
SMILES: CC(=O)N[C@@H]1C(=O)N[C@@H](Cc2ccc(O)cc2)C(=O)N[C@@H](CC2CCC2)C(=O)N2CCC[C@H]2C(=O)N[C@@H](CC(=O)O)C(=O)N[C@@H](Cc2ccc(O)cc2)C(=O)N[C@@H](CC(C)C)C(=O)N[C@H]2CSCCC(=O)N3CN(CN(C3)C(=O)CCSC1(C)C)C(=O)CCSC[C@@H](C(N)=O)NC(=O)[C@H](Cc1ccc(O)cc1)NC(=O)[C@H](CCC(=O)O)NC(=O)[C@H](CC(=O)O)NC(=O)[C@@H](C)NC2=O
notes: scaffold TATA
B5: BCY19686 (peptide)
peptide: Ac-CY[Cba]PD[Dopa]LC[dA]DEYC-NH2
modifications: linker 1-8-13 via TATA
SMILES: CC(=O)N[C@H]1CSCCC(=O)N2CN3CN(C2)C(=O)CCSC[C@H](NC(=O)[C@H](CC(C)C)NC(=O)[C@H](Cc2ccc(O)c(O)c2)NC(=O)[C@H](CC(=O)O)NC(=O)[C@@H]2CCCN2C(=O)[C@H](CC2CCC2)NC(=O)[C@H](Cc2ccc(O)cc2)NC1=O)C(=O)N[C@H](C)C(=O)N[C@@H](CC(=O)O)C(=O)N[C@@H](CCC(=O)O)C(=O)N[C@@H](Cc1ccc(O)cc1)C(=O)N[C@H](C(N)=O)CSCCC3=O
notes: scaffold TATA
B6: BCY19685 (peptide)
peptide: Ac-CY[Cba]PDYLC[dNle]DEYC-NH2
modifications: linker 1-8-13 via TATA
SMILES: CCCC[C@H]1NC(=O)[C@@H]2CSCCC(=O)N3CN(CN(C3)C(=O)CCSC[C@H](NC(C)=O)C(=O)N[C@@H](Cc3ccc(O)cc3)C(=O)N[C@@H](CC3CCC3)C(=O)N3CCC[C@H]3C(=O)N[C@@H](CC(=O)O)C(=O)N[C@@H](Cc3ccc(O)cc3)C(=O)N[C@@H](CC(C)C)C(=O)N2)C(=O)CCSC[C@@H](C(N)=O)NC(=O)[C@H](Cc2ccc(O)cc2)NC(=O)[C@H](CCC(=O)O)NC(=O)[C@H](CC(=O)O)NC1=O
notes: scaffold TATA
B7: BCY19697 (peptide)
peptide: [Dap]CNLQAPCMLTGKVCA-NH2
modifications: linker 2-8-15 via TATA; N-terminus assumed
SMILES: CSCC[C@@H]1NC(=O)[C@@H]2CSCCC(=O)N3CN(CN(C3)C(=O)CCSC[C@H](NC(=O)[C@@H](N)CN)C(=O)N[C@@H](CC(N)=O)C(=O)N[C@@H](CC(C)C)C(=O)N[C@@H](CCC(N)=O)C(=O)N[C@@H](C)C(=O)N3CCC[C@H]3C(=O)N2)C(=O)CCSC[C@@H](C(=O)N[C@@H](C)C(N)=O)NC(=O)[C@H](C(C)C)NC(=O)[C@H](CCCCN)NC(=O)CNC(=O)[C@H]([C@@H](C)O)NC(=O)[C@H](CC(C)C)NC1=O
notes: scaffold TATA
B8: BCY19687 (peptide)
peptide: Ac-CY[Cba]PD[Tyr(2-F)]LC[dA]DEYC-NH2
modifications: linker 1-8-13 via TATA
notes: scaffold TATA
B9: BCY19701 (peptide)
peptide: ACNLQA[Pip]CMLTGKVCA-NH2
modifications: linker 2-8-15 via TATA; N-terminus assumed
SMILES: CSCC[C@@H]1NC(=O)[C@@H]2CSCCC(=O)N3CN(CN(C3)C(=O)CCSC[C@@H](C(=O)N[C@@H](C)C(N)=O)NC(=O)[C@H](C(C)C)NC(=O)[C@H](CCCCN)NC(=O)CNC(=O)[C@H]([C@@H](C)O)NC(=O)[C@H](CC(C)C)NC1=O)C(=O)CCSC[C@H](NC(=O)[C@H](C)N)C(=O)N[C@@H](CC(N)=O)C(=O)N[C@@H](CC(C)C)C(=O)N[C@@H](CCC(N)=O)C(=O)N[C@@H](C)C(=O)N1CCCC[C@H]1C(=O)N2
notes: scaffold TATA
B10: BCY19706 (peptide)
peptide: ACNLQAPCMLTGK[aIle]CA-NH2
modifications: linker 2-8-15 via TATA; N-terminus assumed
SMILES: CC[C@@H](C)[C@@H]1NC(=O)[C@H](CCCCN)NC(=O)CNC(=O)[C@H]([C@@H](C)O)NC(=O)[C@H](CC(C)C)NC(=O)[C@H](CCSC)NC(=O)[C@@H]2CSCCC(=O)N3CN(CN(C3)C(=O)CCSC[C@@H](C(=O)N[C@@H](C)C(N)=O)NC1=O)C(=O)CCSC[C@H](NC(=O)[C@H](C)N)C(=O)N[C@@H](CC(N)=O)C(=O)N[C@@H](CC(C)C)C(=O)N[C@@H](CCC(N)=O)C(=O)N[C@@H](C)C(=O)N1CCC[C@H]1C(=O)N2
notes: scaffold TATA
B11: BCY19710 (peptide)
peptide: ACNLQA[Nva]CMLTGKVCA-NH2
modifications: linker 2-8-15 via TATA; N-terminus assumed
SMILES: CCC[C@@H]1NC(=O)[C@H](C)NC(=O)[C@H](CCC(N)=O)NC(=O)[C@H](CC(C)C)NC(=O)[C@H](CC(N)=O)NC(=O)[C@@H](NC(=O)[C@H](C)N)CSCCC(=O)N2CN3CN(C2)C(=O)CCSC[C@@H](C(=O)N[C@@H](C)C(N)=O)NC(=O)[C@H](C(C)C)NC(=O)[C@H](CCCCN)NC(=O)CNC(=O)[C@H]([C@@H](C)O)NC(=O)[C@H](CC(C)C)NC(=O)[C@H](CCSC)NC(=O)[C@H](CSCCC3=O)NC1=O
notes: scaffold TATA
B12: BCY19690 (peptide)
peptide: Ac-CY[Cba]PDYL[Pen][dA]DEYC-NH2
modifications: linker 1-8-13 via TATA
notes: scaffold TATA
B13: BCY19721 (peptide)
peptide: ACDLTTHNCQ[Trp(2-Me)]GICA-NH2
modifications: linker 2-9-14 via TATA
notes: scaffold TATA
B14: BCY19722 (peptide)
peptide: ACDLTTHNCQ[Trp(6-Me)]GICA-NH2
modifications: linker 2-9-14 via TATA; N-terminus assumed
SMILES: CC[C@H](C)[C@@H]1NC(=O)CNC(=O)[C@H](Cc2c[nH]c3cc(C)ccc23)NC(=O)[C@H](CCC(N)=O)NC(=O)[C@@H]2CSCCC(=O)N3CN(CN(C3)C(=O)CCSC[C@@H](C(=O)N[C@@H](C)C(N)=O)NC1=O)C(=O)CCSC[C@H](NC(=O)[C@H](C)N)C(=O)N[C@@H](CC(=O)O)C(=O)N[C@@H](CC(C)C)C(=O)N[C@@H]([C@@H](C)O)C(=O)N[C@@H]([C@@H](C)O)C(=O)N[C@@H](Cc1c[nH]cn1)C(=O)N[C@@H](CC(N)=O)C(=O)N2
notes: scaffold TATA
B15: BCY19693 (peptide)
peptide: Ac-[dC]Y[Cba]PDYLC[dA]DEYC-NH2
modifications: linker 1-8-13 via TATA
notes: scaffold TATA
B16: BCY19707 (peptide)
peptide: ACNLQAPCMLTGK[Nva(3-Et)]CA-NH2
modifications: linker 2-8-15 via TATA; N-terminus assumed
SMILES: CCC(CC)[C@@H]1NC(=O)[C@H](CCCCN)NC(=O)CNC(=O)[C@H]([C@@H](C)O)NC(=O)[C@H](CC(C)C)NC(=O)[C@H](CCSC)NC(=O)[C@@H]2CSCCC(=O)N3CN(CN(C3)C(=O)CCSC[C@@H](C(=O)N[C@@H](C)C(N)=O)NC1=O)C(=O)CCSC[C@H](NC(=O)[C@H](C)N)C(=O)N[C@@H](CC(N)=O)C(=O)N[C@@H](CC(C)C)C(=O)N[C@@H](CCC(N)=O)C(=O)N[C@@H](C)C(=O)N1CCC[C@H]1C(=O)N2
notes: scaffold TATA
B17: BCY19704 (peptide)
peptide: ACNLQAPCM[Nva]TGKVCA-NH2
modifications: linker 2-8-15 via TATA; N-terminus assumed
SMILES: CCC[C@@H]1NC(=O)[C@H](CCSC)NC(=O)[C@@H]2CSCCC(=O)N3CN(CN(C3)C(=O)CCSC[C@@H](C(=O)N[C@@H](C)C(N)=O)NC(=O)[C@H](C(C)C)NC(=O)[C@H](CCCCN)NC(=O)CNC(=O)[C@H]([C@@H](C)O)NC1=O)C(=O)CCSC[C@H](NC(=O)[C@H](C)N)C(=O)N[C@@H](CC(N)=O)C(=O)N[C@@H](CC(C)C)C(=O)N[C@@H](CCC(N)=O)C(=O)N[C@@H](C)C(=O)N1CCC[C@H]1C(=O)N2
notes: scaffold TATA
B18: BCY19703 (peptide)
peptide: ACNLQAPCM[Nle]TGKVCA-NH2
modifications: linker 2-8-15 via TATA
notes: scaffold TATA
B19: BCY19717 (peptide)
peptide: ACDLTTHNCQWGIC[Aib]-NH2
modifications: linker 2-9-14 via TATA
notes: scaffold TATA

Target: T1, Human NKp46 Fc tag (Acro Biosystems, NC1-H5257) (human, UniProt O76036 22-255)
T1 construct: bought; also called Fc-tagged human NKp46
T1 sequence (O76036 22-255 limits assumed): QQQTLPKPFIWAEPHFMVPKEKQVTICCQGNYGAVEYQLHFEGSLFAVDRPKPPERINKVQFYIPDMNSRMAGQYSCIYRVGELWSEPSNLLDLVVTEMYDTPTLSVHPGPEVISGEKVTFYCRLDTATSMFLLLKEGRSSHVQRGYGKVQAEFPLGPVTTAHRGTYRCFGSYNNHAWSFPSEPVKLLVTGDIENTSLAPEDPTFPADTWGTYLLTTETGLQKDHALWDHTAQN
Test: SPR Method 1 and/or 2
Summary of the method: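 Fc-tagged human NKp46 captured on anti-human IgG surface (500–1000 RU); compounds run in PBS-P+ with 2% DMSO at 25 °C, 50 μL/min, 60 s association, 400 s dissociation. Double-referenced, DMSO-corrected; KD from steady-state 1:1 fit, kinetic constants from kinetic 1:1 fit where appropriate.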

| Binder | Kd [nM] |
| --- | --- |
| B1 | 2610 |
| B2 | 10 |
| B3 | 9.4 |
| B4 | 16 |
| B5 | 44 |
| B6 | 10 |
| B7 | 3730 |
| B8 | 28 |
| B9 | 4030 |
| B10 | 1200 |
| B11 | 2360 |
| B12 | 19 |
| B13 | 374 |
| B14 | 1460 |
| B15 | 17 |
| B16 | 1050 |
| B17 | 1620 |
| B18 | 1690 |
| B19 | 598 |
